Among the data in patent publication US7786083B2, “Metastin derivatives and use thereof” (Takeda Pharmaceutical Company Limited, priority 2006, dated 2010) are Specific Activity (EC50 of test compound based on EC50 of Metastin (45-54)); agonist activity, intracellular calcium ion level, FLIPR (ratio to Metastin (45-54)) values, retold here.

*1 amine or outer side, *2 acyl side, *3 side chain or, on linkers, in order; H or OH if unused. [ ]: non-standard residue; d: D form. Ser(Me) = O-methylserine, COC[C@H](N[*:1])C(=O)[*:2]; Arg(Me) = CNC(=N)NCCC[C@H](N)C(=O)O; Dap(CONH2) = NC(=O)NC[C@H](N)C(=O)O; Ala(cPr) = N[C@@H](CC1CC1)C(=O)O; Hyp = O=C(O)[C@@H]1C[C@@H](O)CN1; tBuAla = CC(C)(C)C[C@H](N)C(=O)O; Cha = N[C@@H](CC1CCCCC1)C(=O)O; Cba = N[C@@H](CC1CCC1)C(=O)O; Nle = CCCC[C@H](N)C(=O)O; Dap = NC[C@H](N)C(=O)O

The target of the test is metastin receptor (OT7T175) stably expressed on CHO/dhfr- cells (human or rat, not given). The test is described as follows: cell-based or functional assay.

Regarding Ac-[dY][Hyp][Dap(CONH2)]T[Cha]G[Ala(cPr)][Arg(Me)]W-NH2 [des(1)-Ac-[D-Tyr2,Hyp3,Alb4,Thr5,Cha6,Ala(cPr)8,Arg(Me)9,Trp10]MS10], the Specific Activity (EC50 of test compound based on EC50 of Metastin (45-54)); agonist activity, intracellular calcium ion level, FLIPR (ratio to Metastin (45-54)) is 0.5.
Regarding Ac-[dY][Hyp]NTFGL[Arg(Me)]W-NH2 (also: Gly6-Leu7 -CONH- replaced by -CH2S-) [des(1)-Ac-[D-Tyr2,Hyp3,Thr5,Gly7Ψ(CH2S)Leu8,Arg(Me)9,Trp10]MS10], the Specific Activity (EC50 of test compound based on EC50 of Metastin (45-54)); agonist activity, intracellular calcium ion level, FLIPR (ratio to Metastin (45-54)) was determined as 1.2.
In the case of Ac-[dY][Hyp][Dap(CONH2)]G[Cha]G[Ala(cPr)][Arg(Me)]W-NH2 [des(1)-Ac-[D-Tyr2,Hyp3,Alb4,Gly5,Cha6,Ala(cPr)8,Arg(Me)9,Trp10]MS10] it was 0.7; in that of Ac-[dY][Hyp]NT[Cba]G[Ala(cPr)][Arg(Me)]W-NH2 [des(1)-Ac-[D-Tyr2,Hyp3,Thr5,Ala(cBu)6,Ala(cPr)8,Arg(Me)9,Trp10]MS10], 0.7; in that of Ac-[dY][Hyp][Dap(CONH2)]A[Cha]G[Ala(cPr)][Arg(Me)]W-NH2 [des(1)-Ac-[D-Tyr2,Hyp3,Alb4,Ala5,Cha6,Ala(cPr)8,Arg(Me)9,Trp10]MS10], 0.5.

B1: des(1)-Ac-[D-Tyr2,Glu3,Thr5,Cha6,Ala(cPr)8,Trp10]MS10 (peptide)
peptide: Ac-[dY]ENT[Cha]G[Ala(cPr)]RW-NH2
SMILES: CC(=O)N[C@H](Cc1ccc(O)cc1)C(=O)N[C@@H](CCC(=O)O)C(=O)N[C@@H](CC(N)=O)C(=O)N[C@H](C(=O)N[C@@H](CC1CCCCC1)C(=O)NCC(=O)N[C@@H](CC1CC1)C(=O)N[C@@H](CCCNC(=N)N)C(=O)N[C@@H](Cc1c[nH]c2ccccc12)C(N)=O)[C@@H](C)O
For B1, the Specific Activity (EC50 of test compound based on EC50 of Metastin (45-54)); agonist activity, intracellular calcium ion level, FLIPR (ratio to Metastin (45-54)) is 0.4.
For Ac-[dY][Hyp][Dap(CONH2)][Dap][Cha]G[Ala(cPr)][Arg(Me)]W-NH2 [des(1)-Ac-[D-Tyr2,Hyp3,Alb4,Dap5,Cha6,Ala(cPr)8,Arg(Me)9,Trp10]MS10], the Specific Activity (EC50 of test compound based on EC50 of Metastin (45-54)); agonist activity, intracellular calcium ion level, FLIPR (ratio to Metastin (45-54)) was determined as 0.7.
For the molecule Ac-[dY][Hyp][Dap(CONH2)]T[Cha]GLRW-NH2 (also: Gly6-Leu7 -CONH- replaced by -CH2CH2-) [des(1)-Ac-[D-Tyr2,Hyp3,Alb4,Thr5,Cha6,Gly7Ψ(CH2CH2)Leu8,Trp10]MS10], the Specific Activity (EC50 of test compound based on EC50 of Metastin (45-54)); agonist activity, intracellular calcium ion level, FLIPR (ratio to Metastin (45-54)) came out at 1.3.
In the case of Ac-[dY][Hyp]NT[Cha]GL[Arg(Me)]W-NH2 (also: Gly6-Leu7 -CONH- replaced by -CH2S-) [des(1)-Ac-[D-Tyr2,Hyp3,Thr5,Cha6,Gly7Ψ(CH2S)Leu8,Arg(Me)9,Trp10]MS10] it was 1.7.

B2: des(1)-Ac-[D-Tyr2,Hyp3,Thr5,Cha6,Nle8,Arg(Me)9,Trp10]MS10 (peptide)
peptide: Ac-[dY][Hyp]NT[Cha]G[Nle][Arg(Me)]W-NH2
SMILES: CCCC[C@H](NC(=O)CNC(=O)[C@H](CC1CCCCC1)NC(=O)[C@@H](NC(=O)[C@H](CC(N)=O)NC(=O)[C@@H]1C[C@@H](O)CN1C(=O)[C@@H](Cc1ccc(O)cc1)NC(C)=O)[C@@H](C)O)C(=O)N[C@@H](CCCNC(=N)NC)C(=O)N[C@@H](Cc1c[nH]c2ccccc12)C(N)=O
B2: the Specific Activity (EC50 of test compound based on EC50 of Metastin (45-54)); agonist activity, intracellular calcium ion level, FLIPR (ratio to Metastin (45-54)) was determined as 0.6.

B3: des(1)-Ac-[D-Tyr2,Hyp3,Thr5,Cha6,Ala(cPr)8,Trp10]MS10 (peptide)
peptide: Ac-[dY][Hyp]NT[Cha]G[Ala(cPr)]RW-NH2
SMILES: CC(=O)N[C@H](Cc1ccc(O)cc1)C(=O)N1C[C@H](O)C[C@H]1C(=O)N[C@@H](CC(N)=O)C(=O)N[C@H](C(=O)N[C@@H](CC1CCCCC1)C(=O)NCC(=O)N[C@@H](CC1CC1)C(=O)N[C@@H](CCCNC(=N)N)C(=O)N[C@@H](Cc1c[nH]c2ccccc12)C(N)=O)[C@@H](C)O
As to B3, the Specific Activity (EC50 of test compound based on EC50 of Metastin (45-54)); agonist activity, intracellular calcium ion level, FLIPR (ratio to Metastin (45-54)) was 0.5.
With Ac-[dY][Hyp]NTF[Ser(Me)]L[Arg(Me)]W-NH2 [des(1)-Ac-[D-Tyr2,Hyp3,Thr5,Ser(Me)7,Arg(Me)9,Trp10]MS10] the figure was 1.2.

B4: des(1)-Ac-[D-Tyr2,Hyp3,Thr5,Cha6,Leu(Me)8,Arg(Me)9,Trp10]MS10 (peptide)
peptide: Ac-[dY][Hyp]NT[Cha]G[tBuAla][Arg(Me)]W-NH2
SMILES: CNC(=N)NCCC[C@H](NC(=O)[C@H](CC(C)(C)C)NC(=O)CNC(=O)[C@H](CC1CCCCC1)NC(=O)[C@@H](NC(=O)[C@H](CC(N)=O)NC(=O)[C@@H]1C[C@@H](O)CN1C(=O)[C@@H](Cc1ccc(O)cc1)NC(C)=O)[C@@H](C)O)C(=O)N[C@@H](Cc1c[nH]c2ccccc12)C(N)=O
Take B4: the Specific Activity (EC50 of test compound based on EC50 of Metastin (45-54)); agonist activity, intracellular calcium ion level, FLIPR (ratio to Metastin (45-54)) turned out to be 1.4.
In the case of Ac-[dY][Hyp]NT[Cha]GLRW-NH2 (also: Gly6-Leu7 -CONH- replaced by -CH2CH2-) [des(1)-Ac-[D-Tyr2,Hyp3,Thr5,Cha6,Gly7Ψ(CH2CH2)Leu8,Trp10]MS10], the Specific Activity (EC50 of test compound based on EC50 of Metastin (45-54)); agonist activity, intracellular calcium ion level, FLIPR (ratio to Metastin (45-54)) was 1.1.

B5: des(1)-Ac-[D-Tyr2,Hyp3,Thr5,Cha6,8,Arg(Me)9,Trp10]MS10 (peptide)
peptide: Ac-[dY][Hyp]NT[Cha]G[Cha][Arg(Me)]W-NH2
SMILES: CNC(=N)NCCC[C@H](NC(=O)[C@H](CC1CCCCC1)NC(=O)CNC(=O)[C@H](CC1CCCCC1)NC(=O)[C@@H](NC(=O)[C@H](CC(N)=O)NC(=O)[C@@H]1C[C@@H](O)CN1C(=O)[C@@H](Cc1ccc(O)cc1)NC(C)=O)[C@@H](C)O)C(=O)N[C@@H](Cc1c[nH]c2ccccc12)C(N)=O
Regarding B5, the Specific Activity (EC50 of test compound based on EC50 of Metastin (45-54)); agonist activity, intracellular calcium ion level, FLIPR (ratio to Metastin (45-54)) was 3.5.

B6: des(1)-Ac-[D-Tyr2,Hyp3,Thr5,Cha6,Arg(Me)9,Trp10]MS10 (peptide)
peptide: Ac-[dY][Hyp]NT[Cha]GL[Arg(Me)]W-NH2
SMILES: CNC(=N)NCCC[C@H](NC(=O)[C@H](CC(C)C)NC(=O)CNC(=O)[C@H](CC1CCCCC1)NC(=O)[C@@H](NC(=O)[C@H](CC(N)=O)NC(=O)[C@@H]1C[C@@H](O)CN1C(=O)[C@@H](Cc1ccc(O)cc1)NC(C)=O)[C@@H](C)O)C(=O)N[C@@H](Cc1c[nH]c2ccccc12)C(N)=O
Regarding B6, the Specific Activity (EC50 of test compound based on EC50 of Metastin (45-54)); agonist activity, intracellular calcium ion level, FLIPR (ratio to Metastin (45-54)) was 0.3.
With Ac-[dY][Hyp][Dap(CONH2)]T[Cha]GLRW-NH2 (also: Gly6-Leu7 -CONH- replaced by (E)-CH=CH-) [des(1)-Ac-[D-Tyr2,Hyp3,Alb4,Thr5,Cha6,Gly7Ψ((E)CH═CH)Leu8,Trp10]MS10], the Specific Activity (EC50 of test compound based on EC50 of Metastin (45-54)); agonist activity, intracellular calcium ion level, FLIPR (ratio to Metastin (45-54)) turned out to be 0.5.
As to Ac-[dY][Hyp]NTFGL[Arg(Me)]W-NH2 (also: Phe5-Gly6 amide bond replaced by -CH2S-) [des(1)-Ac-[D-Tyr2,Hyp3,Thr5,Phe6Ψ(CH2S)Gly7,Arg(Me)9,Trp10]MS10], the Specific Activity (EC50 of test compound based on EC50 of Metastin (45-54)); agonist activity, intracellular calcium ion level, FLIPR (ratio to Metastin (45-54)) was found to be 0.7.

B7: des(1)-Ac-[D-Tyr2,Hyp3,Thr5,Cha6,Ala(cBu)8,Arg(Me)9,Trp10]MS10 (peptide)
peptide: Ac-[dY][Hyp]NT[Cha]G[Cba][Arg(Me)]W-NH2
SMILES: CNC(=N)NCCC[C@H](NC(=O)[C@H](CC1CCC1)NC(=O)CNC(=O)[C@H](CC1CCCCC1)NC(=O)[C@@H](NC(=O)[C@H](CC(N)=O)NC(=O)[C@@H]1C[C@@H](O)CN1C(=O)[C@@H](Cc1ccc(O)cc1)NC(C)=O)[C@@H](C)O)C(=O)N[C@@H](Cc1c[nH]c2ccccc12)C(N)=O
With B7, the Specific Activity (EC50 of test compound based on EC50 of Metastin (45-54)); agonist activity, intracellular calcium ion level, FLIPR (ratio to Metastin (45-54)) was 0.5.
In the case of Ac-[dY][Hyp][Dap(CONH2)]S[Cha]G[Ala(cPr)][Arg(Me)]W-NH2 [des(1)-Ac-[D-Tyr2,Hyp3,Alb4,Ser5,Cha6,Ala(cPr)8,Arg(Me)9,Trp10]MS10] it was 0.5; in that of Ac-[dY][Hyp][Dap(CONH2)]T[Cha]GL[Arg(Me)]W-NH2 (also: Gly6-Leu7 -CONH- replaced by -CH2CH2-) [des(1)-Ac-[D-Tyr2,Hyp3,Alb4,Thr5,Cha6,Gly7Ψ(CH2CH2)Leu8,Arg(Me)9,Trp10]MS10], 1.1.
